The source of these data is patent publication US7429385.

The target in this test is MOLT4 receptor (putative E2 receptor on human lymphoma T-cells, MOLT-4 cells) (human). Briefly: cytofluorimetric binding assay on MOLT-4 cells.

“intracellularly produced truncated HCV E2 terminating at amino acid 715 (E2715), from CHO cell lysate (from UniProt P26664 384-715)”: the fold more efficient binding to MOLT-4 cells than secreted E2 was found to be 30 fold.
